The source of these data is IntAct's records for PubMed 21763481.

B1: B9 domain-containing protein 2 (Mus musculus), Q3UK10 (parent)
chain: MAEVHVIGQIIGATGFSESSLFCKWGIHTGAAWKLLSGVREGQTQVDTPQIGDMAYWSHPIDLHFATKGLQGWPRLHLQVWSQDSFGRCQLAGYGFCHVPSSPGTHQLDCPTWRPLGSWREQLARAFVGGGPQLLHADTIYSGADRYRLHTAAGGTVHLGIGLLLRHFDRYGVEC
partner: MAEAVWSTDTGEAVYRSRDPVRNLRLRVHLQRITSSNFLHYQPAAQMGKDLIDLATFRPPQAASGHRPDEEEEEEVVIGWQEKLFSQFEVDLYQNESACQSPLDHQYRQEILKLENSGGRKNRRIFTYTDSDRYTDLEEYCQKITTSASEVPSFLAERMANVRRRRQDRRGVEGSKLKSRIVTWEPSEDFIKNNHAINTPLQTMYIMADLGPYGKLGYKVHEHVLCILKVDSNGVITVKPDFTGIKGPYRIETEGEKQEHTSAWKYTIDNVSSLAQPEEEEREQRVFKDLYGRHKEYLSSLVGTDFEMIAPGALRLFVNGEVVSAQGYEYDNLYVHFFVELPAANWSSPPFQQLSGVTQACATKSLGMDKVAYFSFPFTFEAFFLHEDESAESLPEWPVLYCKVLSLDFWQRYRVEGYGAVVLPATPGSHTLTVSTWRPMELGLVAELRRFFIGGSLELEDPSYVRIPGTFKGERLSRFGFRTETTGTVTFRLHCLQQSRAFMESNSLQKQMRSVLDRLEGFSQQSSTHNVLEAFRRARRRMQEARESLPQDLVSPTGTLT
B2: B9 domain-containing protein 2 (Mus musculus), Q3UK10 (parent)
chain: B1 chain
partner: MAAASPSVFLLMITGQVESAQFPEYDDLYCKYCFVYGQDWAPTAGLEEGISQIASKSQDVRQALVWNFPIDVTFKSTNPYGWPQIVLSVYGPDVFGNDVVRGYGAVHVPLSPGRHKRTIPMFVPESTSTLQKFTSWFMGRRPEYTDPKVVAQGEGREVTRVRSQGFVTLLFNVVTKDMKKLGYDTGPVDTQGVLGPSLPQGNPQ

Variants of B1 are the subject of the first assay. The note with it: with mks1_mouse Mks1, Q5SW45.
MAEVHVIGQIIGATGFSESSLFCKWGIHTGAAWKLLSGVREGQTQVDTPQIGDMAYWSHPIDLHFATKGLQGWPRLHLQVWSQDSFGRCQLAGYGFCHVPRSPGTHQLDCPTWRPLGSWREQLARAFVGGGPQLLHADTIYSGADRYRLHTAAGGTVHLGIGLLLRHFDRYGVEC [S101R]: the “effect of a mutation on the interaction” value is “disrupting interaction”.

In another assay the parent is B2. The note with it: with b9d1_mouse B9d1, Q9R1S0.
For the variant MAEVHVIGQIIGATGFSESSLFCKWGIHTGAAWKLLSGVREGQTQVDTPQIGDMAYWSHPIDLHFATKGLQGWPRLHLQVWSQDSFGRCQLAGYGFCHVPRSPGTHQLDCPTWRPLGSWREQLARAFVGGGPQLLHADTIYSGADRYRLHTAAGGTVHLGIGLLLRHFDRYGVEC [S101R], the “effect of a mutation on the interaction” value was “with no effect”.
